± gives the uncertainty stated by the source.
assay: amyloid nucleation score (Sup35N fusion, yeast selection) (log enrichment); library NNK2; higher = more nucleation; inactive = no reads after selection
How it was run: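 Using DiMSum, nucleation scores were taken as the log enrichment of output over input reads, centred on the mode score of non-aggregating sequences. The input and output reads came from Illumina sequencing of plasmid inserts, with sequences under 100 input reads excluded. The yeast were psi-negative, expressed Sup35N fused to peptides of 20 random codons, were induced with 100 μM copper sulfate for 24 hours, and were grown 7 days at 30°C on medium lacking adenine and uracil.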

Row | Substance | amyloid nucleation score
1 | VLLKLVDLWL | -0.017 ± 0.54
2 | VLMASSLITVSICVPRTWAY | 6.172 ± 0.041
3 | VLNCNRYFRCSANNIEASES | 0.27 ± 0.56
4 | VLNSPVFFHSYRSMVSLM | -0.117 ± 0.3
5 | VLRANGCWLFMLHNLIYLWL | 0.172 ± 0.65
6 | VLSENITSLISKCYCFKSHL | 6.021 ± 0.038
7 | VLSMDLQVIRSWKICSVSRK | 0.799 ± 0.17
8 | VLSRVDQSTGVIGQTGMVAC | 0.6 ± 0.17
9 | VLSVGAGKYGLSLISSTTTI | 1.28 ± 0.66
10 | VLSVSWYAYCVSMMFIKNWA | 0.697 ± 0.19
11 | VLTDSCKFYCELCQLNREVY | 0.443 ± 0.36
12 | VLTSNTANIGTLHLINIRFH | 8.173 ± 0.026
13 | VLTVN | inactive
14 | VLVFEVPFMFNGAFTMGCIR | 7.075 ± 0.067
15 | VLVNKGLTMHFACSYV | 0.547 ± 0.81
16 | VLYWCPRDSKTWLSGRLLPM | 1.33 ± 0.47
17 | VMDCLMLSNMHLYIVLESKS | 5.08 ± 0.061
18 | VMILGVYKNFMLIFELVPVY | -1.01 ± 0.76
19 | VMMNSCNCRSYTLYLL | 9.183 ± 0.075
20 | VMNMRLLRANLPWTLAWRVQ | 0.122 ± 0.35
21 | VMPGSLCLVRVFFCIMHVLY | inactive
22 | VMRLFIGAGIGRAEL | 5.63 ± 0.059
23 | VMWASERWYANETNSHLFSL | -0.105 ± 0.26
24 | VMYLLNFNIMGGLSRIIGGI | 6.47 ± 0.049
25 | VMYMASSLHYTEEPSTSIMT | -0.243 ± 0.27

Row | Substance | amyloid nucleation score
26 | VNASD | 2.3 ± 0.25
27 | VNDLWRDSHNYFCTNGGNIR | inactive
28 | VNFLGWSLVGKCRFQFWTVR | inactive
29 | VNGPEDPPVHKLMKSTRRSC | 2.79 ± 0.088
30 | VNGTTGRSCNKNLDVFNSSI | -0.35 ± 1.1
31 | VNGYIPRNAAVGQYATRALK | -0.032 ± 1.1
32 | VNKQNPGVYFLHRGFFVLSR | -1.57 ± 0.78
33 | VNLLLMVWRGLLLARTGRSG | 1.96 ± 0.11
34 | VNNYWNDSCARSLNMGRTGR | 0.791 ± 0.27
35 | VNRAR | -0.545 ± 0.63
36 | VNSDYMGIGL | -0.272 ± 1.1
37 | VNSLFDWNRAKFLIR | -1.39 ± 0.79
38 | VNTPDISGRHVSYFDFFVFY | 6.337 ± 0.038
39 | VNWIKGKGRLPPFHGIDCWW | -0.139 ± 0.63
40 | VPELVSYFHLP | 0.863 ± 0.43
41 | VPGLESMR | 0.57 ± 0.81
42 | VPSFRYCTSYQTATSLR | 0.17 ± 0.33
43 | VQILSHFSADCKDDSVDQES | -1.06 ± 1.1
44 | VQRQIDNSKLWYNYTICIPA | 0.679 ± 0.62
45 | VRALRQPAT | 0.567 ± 0.27
46 | VRCNFISVWSCDVESIVVES | 5.096 ± 0.046
47 | VRDIVYRYSGGRRS | inactive
48 | VRFTAWICVYRYKEGWWRSL | -0.417 ± 0.24
49 | VRGYRVGVWLRTGRVLVYRG | -0.282 ± 0.76
50 | VRIKCYVKPYFFQKFLHMIG | -1.34 ± 0.53

Row | Substance | amyloid nucleation score
51 | VRKGCLTRACWRGCECMQGG | 2.03 ± 0.12
52 | VRLVMI | 0.019 ± 1.1
53 | VRMSQKDGKTPFQMFGHLEM | 0.039 ± 0.21
54 | VRSKVFALVGAFSMIKFRGC | inactive
55 | VRSRKCLSVRLFSSVMGVSD | -0.88 ± 0.54
56 | VRSSPTRVRERRSIILVLNC | 0.594 ± 0.81
57 | VRTLGGL | -0.653 ± 0.33
58 | VRTWCAFYTVIRGWYRLLGS | 0.231 ± 0.5
59 | VRVGCTWS | 0.618 ± 0.34
60 | VSACQSESVSNVFDR | -0.152 ± 0.56
61 | VSCCYRFSASNQIIVTPFSS | 8.119 ± 0.026
62 | VSCNSYMGVLMDDGRVETLE | 0.486 ± 0.2
63 | VSEQSMQCGVKFRHGTPSMV | 0.607 ± 0.38
64 | VSFKDTTGECGDLSYRKNAR | 0.646 ± 0.38
65 | VSGCRGVMLI | -0.816 ± 0.54
66 | VSLYLYPVGMGMSE | 1 ± 0.68
67 | VSNFSRYHLSCYSMVRLLLD | -0.532 ± 0.36
68 | VSNKDVLSQDMAKLIWW | 0.81 ± 0.22
69 | VSNTEMQTVHVPAGLLPSGF | -0.27 ± 1.1
70 | VSPLNGSVYGGDEVFGINLG | -1.95 ± 0.75
71 | VSQGRFKYERVVCVNFGKEL | 0.201 ± 0.74
72 | VSSFVKLIWQVALINWVRMG | inactive
73 | VSTRILSCSNEFCYIIGAMV | 2.59 ± 0.15
74 | VSVDSVDAIFRK | 0.489 ± 0.64
75 | VSYGVWSCIRGL | -0.324 ± 1.1

Row | Substance | amyloid nucleation score
76 | VTALYGSSICMSRSDY | 0.119 ± 0.47
77 | VTEHRNHIKTWTTQSSLCDW | 0.124 ± 0.37
78 | VTFNALLGFLASICVITSRI | 3.16 ± 0.072
79 | VTNHV | 0.895 ± 0.33
80 | VTRDARRDSQGDKVV | 1.02 ± 0.17
81 | VTRKVLGYCRVW | 0.472 ± 0.8
82 | VTRRLYSRFIGTKEISAVIC | 0.119 ± 0.43
83 | VTVNFSANARLCRLGLLNVC | -0.222 ± 0.34
84 | VVERKLVMHYGMEMYTVHDG | 0.971 ± 0.51
85 | VVEVCC | -0.368 ± 0.27
86 | VVGSWYKSGRKRLQRDDALS | -1.03 ± 0.55
87 | VVLLAKYQVCIICIKEDLSN | 3.78 ± 0.12
88 | VVLYCFISLLKFIEIGEGHP | -1.24 ± 1.1
89 | VVNSVVPKRSRLCHFYFTGM | -1.02 ± 0.63
90 | VVRCRWQDTRTVSQGWVIP | 0.97 ± 0.33
91 | VVRSHTLQNSALRCWSDG | 0.935 ± 0.39
92 | VVSHLGWTWGFKSMLGIRRS | -0.759 ± 0.29
93 | VVSKLFRDFYWRMLKSNMGW | 0.448 ± 0.62
94 | VVSWCVEVNPRERAKVDMCR | 4.25 ± 0.047
95 | VVSWKCIEYYVVE | -0.871 ± 0.78
96 | VVTGSMDSCGQPKVSSSSAS | 0.294 ± 0.38
97 | VVVRNGLLNISFKVNRCGFG | 8.662 ± 0.055
98 | VVWGERVHGIWLMCYCNWTG | 5.51 ± 0.091
99 | VWCCHLNINVASSLTVSCTR | 0.544 ± 0.21
100 | VWDAEFSGPLRHEIMSGFVW | 0.08 ± 0.3

Row | Substance | amyloid nucleation score
101 | VWLNSHFLMGRI | -1.46 ± 0.54
102 | VWLRYYMCFNFVWSIVGVRI | 3.81 ± 0.052
103 | VWPGLIGHRSFFINLHVGKG | 7.38 ± 0.082
104 | VWRIRTAMGTG | 0.766 ± 0.19
105 | VWRSLMCFSWNPTMHRLISV | 0.363 ± 0.53
106 | VWSRRYTLVGFTSVVPSNDN | 0.3 ± 0.37
107 | VWWSLSYFQAVRGQLFHQIV | -0.139 ± 0.42
108 | VWYINSTNYLCPLISRVQVE | -0.997 ± 0.36
109 | VYGSCSVMLGNWCSSVFKVL | 0.174 ± 1
110 | VYISSSFDFWMFVNFIDDTL | -0.511 ± 0.43
111 | VYKQVRNKVCSYLSLTERRW | 0.654 ± 0.57
112 | VYLFDTYGCSEQFHSVVGYK | -0.916 ± 0.76
113 | VYNSGWQVGWAKGLWSSLYN | -0.409 ± 0.34
114 | VYQIRKV | -0.523 ± 0.33
115 | VYRDDCFHFLDTSQTGACLT | 0.797 ± 0.4
116 | VYRYFNLQVISFWMMARHTM | -1.32 ± 1.1
117 | VYSHILDYFACISYAITLVD | 2.91 ± 0.13
118 | VYSPAIFTNVFSYVSCEEER | 6.56 ± 0.072
119 | VYTTDLPFIYVLSVFMFIHG | -0.447 ± 0.27
120 | VYYTCYDE | 0.024 ± 0.4
121 | WALSHYVCNTYYSNHSVSNT | 5.57 ± 0.052
122 | WALTHVSLYRFGER | 4.32 ± 0.093
123 | WARFEKV | inactive
124 | WCGFHGKATNHFMWIV | 1.45 ± 0.27
125 | WCGREVNLHALLCKIDRLTI | 0.598 ± 0.49

Row | Substance | amyloid nucleation score
126 | WCHVSLMYRGYLKSGARDGN | 0.199 ± 0.43
127 | WCLGSMVTHYYLATNSSGYC | 3.64 ± 0.11
128 | WCNTRRCNSPPLVVC | 1.86 ± 0.12
129 | WCPLWITCMCLCSGLST | 8.742 ± 0.036
130 | WDDFTYGYRLRIYFLIFQRG | -1.15 ± 1.1
131 | WDIFICLVL | -0.063 ± 0.74
132 | WDLLLCNTKFFEIRIKADTL | 3.94 ± 0.094
133 | WELVSGVYVTGCTFSSEDVQ | -0.785 ± 0.29
134 | WERVKYLLDYL | inactive
135 | WFMNSNVLHYM | 0.27 ± 0.64
136 | WFPRSNAYLCMCFFVLREYQ | 0.428 ± 0.66
137 | WGHFAMVRA | 0.426 ± 0.8
138 | WGHLFRSPSRSSRFYRVLPA | -0.159 ± 1.1
139 | WGIWFKPALFRNLYTIFAWL | inactive
140 | WGMWCMFHCRVAS | -0.196 ± 1
141 | WHDRDTITGSITIKKMH | -0.702 ± 0.32
142 | WHLVGRRSID | -0.336 ± 0.76
143 | WHSVKMVNMFVGSKVISRSF | 5.42 ± 0.07
144 | WIREY | -0.43 ± 0.32
145 | WIVSF | 0.131 ± 0.29
146 | WKNYRNMEWCVSSVLSFFYV | 5.31 ± 0.077
147 | WKQLSSWIAIDSLRARKTLS | -0.405 ± 0.42
148 | WKSCWLGIWSEGIYILGEET | -0.284 ± 1.1
149 | WKTKISSSSCRSGNRSEPNA | 0.281 ± 0.29
150 | WLCDWLASIWCMFGLSGCSR | 0.232 ± 0.35

Row | Substance | amyloid nucleation score
151 | WLDLTYFFSRLGVDVISLQ | -0.468 ± 0.48
152 | WLGYFK | inactive
153 | WLICQSIRLLAKNFLLSDRV | 0.019 ± 1.1
154 | WLIGRNAKSWAWVFLKRSTG | 0.392 ± 0.25
155 | WLKVS | -1.48 ± 0.55
156 | WLLLYTCHLMISQISFHRKS | -0.874 ± 0.61
157 | WLRNWGYAFGPRQNYNCCRV | -0.569 ± 0.49
158 | WLSTKWIFFISNVKFFLYLR | -0.06 ± 1
159 | WLTKLDRTSLEGSEYFKKML | 0.307 ± 0.34
160 | WLTLGVYELRWMRSPNTGCL | 1.8 ± 0.23
161 | WLWSSLISSMVVYSQ | 2.53 ± 0.072
162 | WLYRQFDLSLESYNWMPGIE | 3.95 ± 0.12
163 | WMIGRCD | 0.319 ± 0.61
164 | WMLRGRYFGTE | -1.47 ± 0.44
165 | WMWPPMPLGKVAQRGLAVVC | 1.28 ± 0.22
166 | WNMYNRIWFLGHKLLWGSPT | -0.414 ± 0.76
167 | WNNYVLGYEVNRMCLLDRSV | inactive
168 | WQIGPCYNVLRFLKWFWSLR | -0.637 ± 1.1
169 | WRAIVPSGK | 0.067 ± 0.63
